Source: PMC4666776

Assays:
[1] = target: biotinylated nanobody S33 (llama (Lama glama)); test: ELISA
[2] = target: biotinylated nanobody S7 (llama (Lama glama)); test: ELISA

SC50 (sEH at 50% signal saturation; detecting Nb S16) [1]: 4100 ng/mL | SC50 (sEH at 50% signal saturation; detecting Nb S49) [1]: 249 ng/mL | SC50 (sEH at 50% signal saturation; detecting HA-tagged Nb S43) [2]: 3.97 ng/mL
B1: recombinant human soluble epoxide hydrolase (enzyme)
chain: MTLRAAVFDLDGVLALPAVFGVLGRTEEALALPRGLLNDAFQKGGPEGATTRLMKGEITLSQWIPLMEENCRKCSETAKVCLPKNFSIKEIFDKAISARKINRPMLQAALMLRKKGFTTAILTNTWLDDRAERDGLAQLMCELKMHFDFLIESCQVGMVKPEPQIYKFLLDTLKASPSEVVFLDDIGANLKPARDLGMVTILVQDTDTALKELEKVTGIQLLNTPAPLPTSCNPSDMSHGYVTVKPRVRLHFVELGSGPAVCLCHGFPESWYSWRYQIPALAQAGYRVLAMDMKGYGESSAPPEIEEYCMEVLCKEMVTFLDKLGLSQAVFIGHDWGGMLVWYMALFYPERVRAVASLNTPFIPANPNMSPLESIKANPVFDYQLYFQEPGVAEAELEQNLSRTFKSLFRASDESVLSMHKVCEAGGLFVNSPEEPSLSRMVTEEEIQFYVQQFKKSGFRGPLNWYRNMERNWKWACKSLGRKILIPALMVTAEKDFVLVPQMSQHMEDWIPHLKRGHIEDCGHWTQMDKPTEVNQILIKWLDSDARNPPVVSKM
